Data reported in paper PMC5542437, “Assembly and stoichiometry of the core structure of the bacterial flagellar type III export gate complex” (PLoS Biology, 2017).

B4: FliF (natural protein)
chain: MSATASTATQPKPLEWLNRLRANPRIPLIVAGSAAVAIVVAMVLWAKTPDYRTLFSNLSDQDGGAIVAQLTQMNIPYRFANGSGAIEVPADKVHELRLRLAQQGLPKGGAVGFELLDQEKFGISQFSEQVNYQRALEGELARTIETLGPVKSARVHLAMPKPSLFVREQKSPSASVTVTLEPGRALDEGQISAVVHLVSSAVAGLPPGNVTLVDQSGHLLTQSNTSGRDLNDAQLKFANDVESRIQRRIEAILSPIVGNGNVHAQVTAQLDFANKEQTEEHYSPNGDASKATLRSRQLNISEQVGAGYPGGVPGALSNQPAPPNEAPIATPPTNQQNAQNTPQTSTSTNSNSAGPRSTQRNETSNYEVDRTIRHTKMNVGDIERLSVAVVVNYKTLADGKPLPLTADQMKQIEDLTREAMGFSDKRGDTLNVVNSPFSAVDNTGGELPFWQQQSFIDQLLAAGRWLLVLVVAWILWRKAVRPQLTRRVEEAKAAQEQAQVRQETEEAVEVRLSKDEQLQQRRANQRLGAEVMSQRIREMSDNDPRVVALVIRQWMSNDHE
notes: FliF, Salmonella enterica, transmembrane protein that forms the MS ring; also called MS ring; source: Salmonella SJW1368, pTrc99A-based plasmid, in DDM-solubilised membranes

Assays:
[1] = target: B4; test: pull-down; Ni affinity copurification with FliG-His from SJW1368 co-expressing FlhA, FlhB, FliF, FliG-His, FliO, FliP, HA-FliQ and FliR-FLAG; membranes solubilised with 1% DDM; details: partners not purified
[2] = target: T1, His-St-FliP (Salmonella FliP with a hexahistidine tag inserted between Gln-22 and Leu-23) (Salmonella enterica, UniProt P54700 22-245); test: pull-down; copurification from Salmonella SJW1368 co-expressing His-FliP with other export gate proteins; membranes solubilised with 1% DDM; Ni affinity, then anti-FLAG M2 affinity (eluted with FLAG peptide), then SEC on Superdex 200 10/300; SDS-PAGE with CBB; details: partners not purified
T1 construct: FliP, Salmonella enterica, 25-kDa transmembrane protein; mature form studied; the signal peptide (Met-1 to Gln-22) is cleaved during membrane insertion; tag LHHHHHH inserted between Gln-22 and Leu-23; Hexameric ring in SEC peak 2; also called His-FliP; FliP6 ring; source: Salmonella SJW1368, membranes solubilised with 1% DDM or 1% LMNG; purified (Ni-NTA, SEC); not shown: His6 (LHHHHHH), internal …
T1 sequence: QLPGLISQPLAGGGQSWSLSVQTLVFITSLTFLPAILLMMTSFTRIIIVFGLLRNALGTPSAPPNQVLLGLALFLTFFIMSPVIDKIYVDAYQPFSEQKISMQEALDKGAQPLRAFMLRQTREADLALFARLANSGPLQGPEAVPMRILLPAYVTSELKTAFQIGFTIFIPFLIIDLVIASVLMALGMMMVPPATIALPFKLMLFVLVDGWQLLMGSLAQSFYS

[3] = target: the molecule itself; test: negative-stain electron microscopy with 2D class averaging; purified SEC peak fractions, 1.0% uranyl acetate, 100 kV; autocorrelation analysis for the rotational symmetry of the FliP ring
[4] = target: T2, FlhA (Salmonella enterica, UniProt P40729 1-692); test: SEC; Ni-purified FlhA/FliF/FliG-His complex on Superdex 200 10/300 (DDM); main peak examined by negative-stain EM; details: both partners purified
T2 construct: FlhA, Salmonella enterica, transmembrane export gate protein; source: Salmonella SJW1368, pTrc99A-based plasmid, in DDM- or LMNG-solubilised membranes; co-purified
T2 sequence: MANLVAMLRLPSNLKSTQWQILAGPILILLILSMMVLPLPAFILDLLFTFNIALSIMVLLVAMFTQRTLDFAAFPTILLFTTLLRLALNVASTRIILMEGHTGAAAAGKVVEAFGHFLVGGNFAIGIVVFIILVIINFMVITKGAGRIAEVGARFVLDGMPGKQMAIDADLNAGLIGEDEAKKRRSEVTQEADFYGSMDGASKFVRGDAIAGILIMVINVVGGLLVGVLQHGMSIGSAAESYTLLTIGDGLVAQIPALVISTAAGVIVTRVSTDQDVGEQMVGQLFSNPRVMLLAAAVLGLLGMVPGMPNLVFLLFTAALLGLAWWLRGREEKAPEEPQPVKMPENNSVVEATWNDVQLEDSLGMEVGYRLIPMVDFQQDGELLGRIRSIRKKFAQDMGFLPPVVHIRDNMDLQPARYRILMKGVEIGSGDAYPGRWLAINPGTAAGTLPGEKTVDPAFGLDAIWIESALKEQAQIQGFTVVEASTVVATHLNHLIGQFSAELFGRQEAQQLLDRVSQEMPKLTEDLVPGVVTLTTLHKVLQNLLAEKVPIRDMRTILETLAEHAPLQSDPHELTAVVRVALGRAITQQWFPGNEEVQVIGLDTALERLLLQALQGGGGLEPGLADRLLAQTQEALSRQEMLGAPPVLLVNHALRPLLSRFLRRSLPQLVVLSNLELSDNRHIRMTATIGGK

[5] = target: the molecule itself; test: crystal structure; Tm-FliPP, 2.4 Å, SAD phasing with a Se-Met derivative; 2 tetramers in the asymmetric unit
[6] = target: the molecule itself; test: SEC; Ni-purified His-FliP or FliO/His-FliP complexes (wild type and mutants) on Superdex 200 10/300; 20 mM Tris-HCl pH 8.0, 300 mM NaCl, 2 mM EDTA, 5% glycerol, 0.1% DDM

B1: FliG-His (natural protein)
chain: MSNLSGTDKSVILLMTIGEDRAAEVFKHLSTREVQALSTAMANVRQISNKQLTDVLSEFEQEAEQFAALNINANEYLRSVLVKALGEERASSLLEDILETRDTTSGIETLNFMEPQSAADLIRDEHPQIIATILVHLKRSQAADILALFDERLRHDVMLRIATFGGVQPAALAELTEVLNGLLDGQNLKRSKMGGVRTAAEIINLMKTQQEEAVITAVREFDGELAQKIIDEMFLFENLVDVDDRSIQRLLQEVDSESLLIALKGAEPPLREKFLRNMSQRAADILRDDLANRGPVRLSQVENEQKAILLIVRRLAETGEMVIGSGEDTYV
notes: FliG, Salmonella enterica, C ring protein; also called His-FliG; source: Salmonella SJW1368, pTrc99A-based plasmid, in DDM-solubilised membranes; not shown: His tag, C-terminal, kept
binding result [1]: binds

B2: FlhB (natural protein)
chain: MAEESDDDKTEAPTPHRLEKAREEGQIPRSRELTSLLILLVGVCIIWFGGESLARQLAGMLSAGLHFDHRMVNDPNLILGQIILLIKAAMMALLPLIAGVVLVALISPVMLGGLIFSGKSLQPKFSKLNPLPGIKRMFSAQTGAELLKAVLKSTLVGCVTGFYLWHHWPQMMRLMAESPIVAMGNALDLVGLCALLVVLGVIPMVGFDVFFQIFSHLKKLRMSRQDIRDEFKESEGDPHVKGKIRQMQRAAAQRRMMEDVPKADVIVTNPTHYSVALQYDENKMSAPKVVAKGAGLIALRIREIGAEHRVPTLEAPPLARALYRHAEIGQQIPGQLYAAVAEVLAWVWQLKRWRLAGGQRPPQPENLPVPEALDFMNEKNTDG
notes: FlhB, Salmonella enterica, transmembrane export gate protein; its C-terminal cytoplasmic domain undergoes autocleavage between Asp-269 and Pro270 as printed; source: Salmonella SJW1368, pTrc99A-based plasmid, in DDM- or LMNG-solubilised membranes; co-purified
stoichiometry N [2]: ~2 copies of FlhB per 6 copies of FliP

B3: FliR-FLAG (natural protein)
chain: MIQVTSEQWLYWLHLYFWPLLRVLALISTAPILSERAIPKRVKLGLGIMITLVIAPSLPANDTPLFSIAALWLAMQQILIGIALGFTMQFAFAAVRTAGEFIGLQMGLSFATFVDPGSHLNMPVLARIMDMLAMLLFLTFNGHLWLISLLVDTFHTLPIGSNPVNSNAFMALARAGGLIFLNGLMLALPVITLLLTLNLALGLLNRMAPQLSIFVIGFPLTLTVGIMLMAALMPLIAPFCEHLFSEIFNLLADIVSEMPINNNP
notes: FliR, Salmonella enterica, transmembrane export gate protein; also called FLAG-FliR (as printed in the methods); source: Salmonella SJW1368, pTrc99A-based plasmid, in DDM- or LMNG-solubilised membranes; co-purified (Ni-NTA, anti-FLAG gel, SEC)
stoichiometry N [2]: ~2 copies of FliR per 6 copies of FliP

B4
binding result [3]: binds
binding result [4]: binds

B5: Tm-FliPP (periplasmic domain of FliP of Thermotoga maritima) (domain or fragment)
chain: YNNAITPYLNKETGYQEMFQRVNTRIREFMINELKNHHNEDNVFMLAKNSGIEIAKIEEAPNAVLIPAFVLGELEVAFK
notes: FliP of Thermotoga maritima (printed 'T. maritia'), periplasmic domain between TM-2 and TM-3; the atomic model holds Thr-122 to Lys-188; the N-terminal 13 residues of the construct are invisible; also called FliPP of T. maritia; Tm-FliPP tetramer; source: expression and purification described previously [37]
stoichiometry N [5]: 4

B6: His-FliP(F137A) (natural protein)
chain: QLPGLISQPLAGGGQSWSLSVQTLVFITSLTFLPAILLMMTSFTRIIIVFGLLRNALGTPSAPPNQVLLGLALFLTFFIMSPVIDKIYVDAYQPFSEQKISMQEALDKGAQPLRAAMLRQTREADLALFARLANSGPLQGPEAVPMRILLPAYVTSELKTAFQIGFTIFIPFLIIDLVIASVLMALGMMMVPPATIALPFKLMLFVLVDGWQLLMGSLAQSFYS
notes: FliP, Salmonella enterica; mature form; signal peptide (Met-1 to Gln-22) cleaved; His tag inserted between Gln-22 and Leu-23; source: Salmonella SJW1368, co-expressed with FliO, DDM-solubilised membranes; purified (Ni-NTA, SEC); not shown: His6 (LHHHHHH), internal (after residue 22), kept
stoichiometry N [6]: 2

B7: His-FliP(E178A) (natural protein)
chain: QLPGLISQPLAGGGQSWSLSVQTLVFITSLTFLPAILLMMTSFTRIIIVFGLLRNALGTPSAPPNQVLLGLALFLTFFIMSPVIDKIYVDAYQPFSEQKISMQEALDKGAQPLRAFMLRQTREADLALFARLANSGPLQGPEAVPMRILLPAYVTSALKTAFQIGFTIFIPFLIIDLVIASVLMALGMMMVPPATIALPFKLMLFVLVDGWQLLMGSLAQSFYS
notes: as for B6
stoichiometry N [6]: 2

B8: His-FliP(F150A) (natural protein)
chain: QLPGLISQPLAGGGQSWSLSVQTLVFITSLTFLPAILLMMTSFTRIIIVFGLLRNALGTPSAPPNQVLLGLALFLTFFIMSPVIDKIYVDAYQPFSEQKISMQEALDKGAQPLRAFMLRQTREADLALAARLANSGPLQGPEAVPMRILLPAYVTSELKTAFQIGFTIFIPFLIIDLVIASVLMALGMMMVPPATIALPFKLMLFVLVDGWQLLMGSLAQSFYS
notes: FliP, Salmonella enterica; mature form; signal peptide (Met-1 to Gln-22) cleaved; His tag inserted between Gln-22 and Leu-23; also called His-FliP(F1507A) [sic]; source: Salmonella SJW1368, co-expressed with FliO, DDM-solubilised membranes; purified (Ni-NTA, SEC); not shown: His6 (LHHHHHH), internal (after residue 22), kept
stoichiometry N [6]: 2
